Article PMC9016352, “Disease‐linked TDP‐43 hyperphosphorylation suppresses TDP‐43 condensation and aggregation”

Assays:
TDP‐43 = TDP‐43 (UniProt Q13148); experiment: condensate sedimentation assay, TDP-43 Western blot; settings: reference: unmodified TDP-43 (no CK1δ, no ATP); sites S403,S404,S409,S410
TDP-43-MBP-His6 Wt = TDP-43-MBP-His6 Wt (human (hTDP-43)?, UniProt Q13148 1-414); experiment: EMSA; 20 mM NaPO4 pH 8, 150 mM NaCl, 1 mM DTT, 5 mM MgCl2, 0.5 mg/ml BSA, 0.1 mg/ml yeast tRNA, 5% glycerol, 1 U/ul RNase inhibitor, 20 min RT; 16 nM Cy5-RNA, 0-1.6 uM protein; 6% native PAGE 0.5x TBE; settings: protein: recombinant; tags: C-terminal TEV site-MBP-His6; label: 5' Cy5

With “TDP‐43 (from UniProt Q13148) TDP-43 + CK1δ + ATP” the “other: S/(S+C) ratio (higher = less condensate)” value (TDP‐43) was “weaker; reference ~0.25”.

UGUGUGUGUGUGUGUGUGUGUGUG (ssRNA) [(UG)12 RNA]: binds (TDP-43-MBP-His6 Wt).
